Paper PMC3810134, “Substrate and Inhibitor Specificity of the Type II p21-Activated Kinase, PAK6” (PLoS ONE, 2013)
Positions count from the first letter of the chain named. Numbers in names are those of the source.

Tested on: PACSIN1 phosphorylation (Ser343) in HEK293 cells
Experiment: Cell-based assay: phospho-PACSIN1 on co-transfection with PAK6 constructs in HEK293 cells
Conditions: co-transfection with myc-PACSIN1, 24 h
Experimental: HEK293 cells were grown at 37°C with 5% CO2 in Dulbecco’s modified Eagle’s medium (DMEM) supplemented with 10% fetal bovine serum and penicillin/streptomycin. Cells were transfected with pCMV6-myc-PACSIN1 (kindly provided by J. Peterson) and pEGFP-C2, pEGFP-PAK6-WT, pEGFP-PAK6-P52L, pEGFP-PAK6-N (N-terminus, residues 1–382) or pEGFP-PAK6-CAT (catalytic domain, residues 383–674) using polyethylenimine (PEI, Polysciences Inc.). Twenty four hours later, cells were trypsinized, quenched with complete medium, washed with PBS and lysed in buffer containing 20 mM Tris (pH 8.0), 200 mM NaCl, 1 mM EDTA, 1% Triton X-100, Complete Protease Inhibitor Cocktail (Roche), and phosphatase inhibitors (1 mM Na3VO4, 10 mM NaF, 10 mM β-glycerol phosphate) for 10 minutes at 4°C. Samples were resolved by SDS-PAGE and were assessed by immunoblotting using the following antibodies: goat anti-GFP (1∶1000; Rockland), mouse anti-myc (9E10, 1∶1000; Santa Cruz Biotechnology), rabbit anti-phospho-PACSIN1 (1∶2000; gift of J. Peterson), mouse anti-vinculin (1∶10,000; Sigma), anti-goat or anti-rabbit IgG AlexaFluor680 (1∶5000, Invitrogen), anti-mouse IgG IRDye800 (1∶5000, Li-Cor). Bands visualized using a Li-Cor Oddysey imager and were quantified using ImageJ. A ratio of phospho-PACSIN1 to total PACSIN1 was calculated by dividing the total phospho-PACSIN1 signal by the myc signal.

B1: full-length WT GFP-PAK6: full-length wild-type PAK6 fused to GFP, transfected in HEK293 cells (protein, UniProt Q9NQU5 1-681, looked up)
chain: MFRKKKKKRPEISAPQNFQHRVHTSFDPKEGKFVGLPPQWQNILDTLRRPKPVVDPSRITRVQLQPMKTVVRGSAMPVDGYISGLLNDIQKLSVISSNTLRGRSPTSRRRAQSLGLLGDEHWATDPDMYLQSPQSERTDPHGLYLSCNGGTPAGHKQMPWPEPQSPRVLPNGLAAKAQSLGPAEFQGASQRCLQLGACLQSSPPGASPPTGTNRHGMKAAKHGSEEARPQSCLVGSATGRPGGEGSPSPKTRESSLKRRLFRSMFLSTAATAPPSSSKPGPPPQSKPNSSFRPPQKDNPPSLVAKAQSLPSDQPVGTFSPLTTSDTSSPQKSLRTAPATGQLPGRSSPAGSPRTWHAQISTSNLYLPQDPTVAKGALAGEDTGVVTHEQFKAALRMVVDQGDPRLLLDSYVKIGEGSTGIVCLAREKHSGRQVAVKMMDLRKQQRRELLFNEVVIMRDYQHFNVVEMYKSYLVGEELWVLMEFLQGGALTDIVSQVRLNEEQIATVCEAVLQALAYLHAQGVIHRDIKSDSILLTLDGRVKLSDFGFCAQISKDVPKRKSLVGTPYWMAPEVISRSLYATEVDIWSLGIMVIEMVDGEPPYFSDSPVQAMKRLRDSPPPKLKNSHKVSPVLRDFLERMLVRDPQERATAQELLDHPFLLQTGLPECLVPLIQLYRKQTSTC
modifications: full-length GFP fusion
notes: full-length wild-type PAK6 fused to GFP, transfected in HEK293 cells
phosphorylation of PACSIN1 at Ser343 compared to GFP alone or GFP-PAK6 N-terminus (phospho-PACSIN1 immunoblot): increased phosphorylation of PACSIN1 at Ser343

B2: P52L mutant: full-length GFP-PAK6 with melanoma-associated P52L mutation, transfected in HEK293 cells (protein, UniProt Q9NQU5 1-681, looked up, variant P52L)
chain: B1 chain with P52L
modifications: full-length GFP fusion
notes: full-length GFP-PAK6 with melanoma-associated P52L mutation, transfected in HEK293 cells
phosphorylation of PACSIN1 compared to wild-type PAK6 (phospho-PACSIN1/total PACSIN1 (myc), n = 4, Student's t-test): significantly increased phosphorylation
